Measurements published in publication PMC11633186.

Molecular target: VisAG5 (S. gordonii VisA region containing its 7 G5 domains, residues 138-698, C-terminal His-tag) (Streptococcus gordonii DL1)
Test: SDS-PAGE and western blot against the His-tag (denaturing); purified VisAG5 in Laemmli buffer with 2.5% betamercaptoethanol; size of the band

stoichiometry N: 2
Substance: VisAG5 (S. gordonii VisA region containing its 7 G5 domains, residues 138-698, C-terminal His-tag) (domain or fragment)
